# T1: IFNλ4 (human, UniProt K9M1U5-1 22-179)
# T1 chain: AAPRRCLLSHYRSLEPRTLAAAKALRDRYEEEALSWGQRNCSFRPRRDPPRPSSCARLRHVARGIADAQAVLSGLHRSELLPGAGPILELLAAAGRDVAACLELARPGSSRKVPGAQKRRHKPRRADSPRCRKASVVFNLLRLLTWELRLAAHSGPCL
# T2: IFNλ3 (UniProt Q8IZI9 34-196)
# T2 chain: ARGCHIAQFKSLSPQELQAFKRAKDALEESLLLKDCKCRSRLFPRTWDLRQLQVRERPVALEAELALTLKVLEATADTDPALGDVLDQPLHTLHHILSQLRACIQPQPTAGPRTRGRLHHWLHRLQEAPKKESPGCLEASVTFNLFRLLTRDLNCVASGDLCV
# Assays:
# IFNλR1 (Homo sapiens) = IFNλR1 (Homo sapiens) (UniProt Q8IU57); conditions: cited from earlier work
# IFNλR1 [1] = molecular target: T3, IFNλR1 (UniProt Q8IU57 21-226, biotin (in SPR, MST and yeast staining); fluorescent dye NanoTemper NT-L020 (in MST)); experiment: cell-based or functional assay
# IFNλR1 [2] = molecular target: T3, IFNλR1; experiment: SPR; Biacore T200, 22 °C, equilibrium method; ~850 RU biotinylated IFNλR1 captured on a Biotin CAPture chip, IFNλ4 as analyte, nine points; 10 mM MES pH 5.6, 500 mM NaCl, 10% glycerol, 0.05% Tween20; 1:1 binding model; conditions: both partners purified
# IFNλ4 = molecular target: T1, IFNλ4; experiment: MST
# IFNλ3 = molecular target: T2, IFNλ3; experiment: MST
# IFNλ3 (from UniProt Q8IZI9), sequence (Q8IZI9 22-196): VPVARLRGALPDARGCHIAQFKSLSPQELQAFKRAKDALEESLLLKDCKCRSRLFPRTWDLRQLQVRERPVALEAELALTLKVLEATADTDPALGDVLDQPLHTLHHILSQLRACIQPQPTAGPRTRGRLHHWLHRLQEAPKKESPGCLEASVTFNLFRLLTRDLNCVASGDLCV
molecule,measurement,setting,value
IFNλ3 (from UniProt Q8IZI9),Kd,IFNλR1 (Homo sapiens),850 nM
"IFNλ4 (ligand, human, UniProt K9M1U5-1 22-179, looked up, codon-optimised gene; also called interferon lambda 4; source: insect Hi5 cells (baculovirus), secreted as sfGFP-10RB-IFNλ4, cleaved with 3C protease, purified (S75 Superdex)) AAPRRCLLSHYRSLEPRTLAAAKALRDRYEEEALSWGQRNCSFRPRRDPPRPSSCARLRHVARGIADAQAVLSGLHRSELLPGAGPILELLAAAGRDVAACLELARPGSSRKVPGAQKRRHKPRRADSPRCRKASVVFNLLRLLTWELRLAAHSGPCL","pSTAT1 signaling in Hap1 cells, EC50 relative to IFNλ3",IFNλR1 [1],20 fold
same,Kd,IFNλR1 [2],191 nM
"IFNλR1 (receptor, biotin (in SPR, MST and yeast staining); fluorescent dye NanoTemper NT-L020 (in MST)) RPRLAPPQNVTLLSQNFSVYLTWLPGLGNPQDVTYFVAYQSSPTRRRWREVEECAGTKELLCSMMCLKKQDLYNKFKGRVRTVSPSSKSPWVESEYLDYLFEVEPAPPVLVLTQTEEILSANATYQLPPCMPPLDLKYEVAFWKEGAGNKTLFPVTPHGQPVQITLQPAASEHHCLSARTIYTFSVPKYSKFSKPTCFLLEVPEAN",Kd,IFNλ4,396 nM
same,Kd,IFNλ3,1580 nM

# Reference: paper PMC11742915 (Nature Communications, 2025)
